We go through 13 sequences from a protein production outcome set (Wang et al. 2014).

A short description of this data set: label from the status in PepcDB records.
With “MCGIVGANSTRNVTNILIEGLKKLEYRGYDSAGLAIIDDKNNIDICKEVGKVIELEKSVHNLANFKGDIGIAHTRWATHGKPSKNNSHPHASESFCIVHNGVIENFAELKKVLINDGYKFKSDTDTEVIAHLLQKEWRDNFSIVDNIKYIMAMLKGAYAVAIISQKFSDKIVAVRSGSPLVIGVGIDENFISSDALSLLPVTNKFSYLDEGDIAIISKDNVEVFDNNGAAKNLEVEEYNYSSSSASKDGYKHYMLKEIYEQPEAVSNTILASLADGEISLDSFDKRAKELFEKTKHICIVACGTSYNAGMTAKYWIEKYAKVPCSVEIASEIRYRDNVVVDGSLFVSISQSGETADTLESLRKSKKQNYVGSMCICNVPNSSLVRESDIAFMTKAGVEIGVASTKAFTTQLVALAIFTLVIAKLKNSLTDQQIAKYTEELKNIRALVMGALKLDTEIDQISEYFSDKEHTIFLGRGLYYPIAIEGALKLKEISYIHAEAYPSGELKHGPLALVDKNMPIVAVVPNDELLDKTLSNLQEVHARGGKLILFVDKAVKERVNFDNSIVLELDAGHDFSAPVVFTIPLQLLSYHVAIIKGTDVDQPRNLAKSVTVE”, the protein production result is “not failed”.
The result for “MCGVELDSLISQVKDLLPDLGEGFILACLEYYHYDPEQVINNILEERLAPTLSQLDRNLDREMN” reads “not failed”; that for “MCIGFCIDRLDKGFLYTCHSTICRLVAQNMKKSLIHIGDGLGLSLLIEPTGSKSWRFRYRFGGKPKMISFGAYPLVSLAEARKKRDEARKQVLDGINPSEHRKAQKLNLMSESENTFETIAREWHTMKSVCWSVGYASDIMEAFRNDIFPYVGKRSIAEVKPLELLNVMRKMEKRGALEKMKKVRQRCSEVFRYAIATGRAEYNPAADLSSALEVHQSHHFPFLKADEIPDFLRALEGYTGSKLVRIATKLLLITGVRTIELRAALWSEFDLGNAIWEIPEERMKKRRAHLVPLSTQALDLLNELKIMTGNYRYVFPGRNNPNKPMSEASINQVIKRIGFGGEVTGHGFRHMLSTILHEEGFDSSFIEIQLAHVDRNSIRGTYNHAQYLEKRRHMMQYYSDYVIGKDF”, “failed”.
In the case of “MCILGTTAKSLRLASVYGLSLFILFIVPLYLWQSTAAKMIAEVDWLDVATEGALFVLGMCWLMVIVSVRPSGRVTNLLIAGLSSYCLGCYLDLLDEIFIVKTLPIYNWFEKMPTPVGLLVLTGGLWLWRDEQTVVNRQLQTREQFHREHQLTDSLTLLNDAKAFEHHLVKQLSQNQSVGLLMLDVDYFHRYNKNQGVEEGDKLLSQLALWLSSTLRNQDLVCRYAGDRFVILLRGAIPSFVSVMAEQLQHGIKAFDCSATVVWTLPSPKMLPLQNSTCTAKEEAIALLQVLNQKMSQQKELRVSEAIAPSPFNTLDKSAASELN” it was “failed”; in that of “MCKHILGKGYVDGVIEADEVFFTESFKGTKPSNMPRRSRKIGKQVKKSGISKEQVCITTAIDRQGNLIMELACKGRITSKELEKLYDGHISNESILCTDSRKSYIQFANDLSLEHKRIKRGKHKEGLYHIQHINVLHSNLRKWMNRFNGAATKYISNYIKWFKWLQIFDTHKEIIKAKNFIVQSNVAHAYIKVKDLKYREPICV”, “failed”.
In the case of “MCLCQLSRRKKRPDDSDTQSAPGAVQGTGADYSGAVTASAASTVTHPTVTRHVTASGARIYTIGIRAFEHLGVNVFLVVVGDPQQPSYTALIDAGSSFDFSQQGLLDGLKRVREEYGEAWSWETLSRLVITHPHPDHVGGLPFVRTLTAAPVAAHALAAAVIEEPGRRAEAFKLGADAMLARLGVPEGEYAARLRRRAGNLMSPSGVKVETALQDGDTLDGLFTVLHTPGHDGAQICLRLDEVLLSADHLLPHNSPPLMPGWMLPGSGLGPYLAALDHIETLEGVDLALGSHDEPMPDWRGRVDFLRRRYDDKLRGVLGAASEPQTIYALTCAVNPRLRAAQALLLLDQTAALVEELVVRGELHETREQAADGERWTYQRA” it was “failed”; in that of “MCLDACLTPDLADRDPVGRACDRAYVIDRPVFRSAMGNCRPSHFRGNGTHAAMNGESCAQRGKRTHKMQESEFFQLSGTTAVLLLVAFYGATFLMSLMIGQKKENVDGYMVSNSSVGFGLSAASMIATWIWAASFYASATSGFKYGLSGPIHYGFWGALMILFIYPFGKRFRQLAPKAHTLAEVIHARHGASSQMIMAVSNIVGSCISLMVNFTAAGALVSVLSPLSFIQGVLIAGLGVLSYTLWSGFRASVMTDFAQLVAMILAAVIIIPLIFFNAGGPDMLQANMWRLSSEQADFFSTTAILEQGAPYFVAVLAYAIGNQTIAQRLFAVREDLIKPTFLTATIGYGAVVIGLGMLGLLALFVGLEPVNGNMNNIIPQMASTYLPPVGIALFFILVVGSLSSTADSDLAALSAIVMTDIYAKNLAGGRPDPRRMLWWGRATMIVATMVGVIFASLRLDILVMLVFVGALWGAIVFPVIASFYWDRVSNSAFFWSVISAVVLFTIVRFELVPIEGAVAVFYEICAAIGGGVVIGLMSFAFFGRVTALTLGTLATLFLLPCFVGTLREYIVLLGSLTAYGVSTVVCVALSLRNQERFDFSLLAERVTSFHYEKARMMGAKPAAPAAQPQPARG”, “failed”.
As to “MCLSIPSQVVAVDNERQSVTVDTLGVRRDVSSHLMTEPLAIGDYVLIHIGFVMNKIDRNDALQSLELYQEIVSKLENETTH”, the protein production entry was “not failed”.
In the case of “MCRSIRLTAMAAFLVIMGGAACSGKPVLPDLTLEGGDRSYSELITAQQHSFSIHTPSDAPLENSSIRIEVNEGESLTPRLRSSGSVDCSSLASVVAGVVAPGMTAEEKALALWRFVMDSCYHGRWGTSLDGLEHLNVYGYGYCGTYAAVLESLWWTAGLTARHVNIGNHAATEVYYNNDWHYIDADTRTYFLLKDNRTIASLDELNDNVELWTMLRRGSSRKAGKKYYYMTMHPNGHGRSPVYTNDFTMAKGDVLTLDWQSRGKWCLNRGQEGGKEPAGEPPFYGNGLFTFHRDFKDRSQSRSGLVSSTNIDWQDAAAGYLHPQHAKQEASLVYRVKTPYFIPETTLSGSFFRKGTGDSAAIDISTDNGKRWVSLWRADATGTVKASVVTAQTQQVTTDVPWKYSYLMRLRMRAGKSPRDVGAYHLDSASVLAYNPRCLPALRPGDNRITFSDGSQARRTVRVTYNWHDDLPITLSKETPFEGEEITVSARVTNRGAAEAHNVPVAVYLGNPAQGGVEIGRDTISRIPVGGTGLARVQWKATRKLAGRAANPGVPVYAVVDPDNRVAESDKANNVFSRIVKVLNPPDVRIPSESFIRFERAKDHSQSLAVVASVRNFSNSADYGLFLDDHGTGEAVEVTVYDGNPAKGGKVIGRETISRLLPLEHRNVSVKWDIAQLKGVHTVYVQVHPPANLTRAPGKRAPAAMAVPVDLDAYRSCKGI” it was “failed”; in that of “MCRVGLRAMVQERPVRVERRLSAILAADVAGYSRLMHNDEEATHAKLSALLTEAVQPAIAEHGGHIVKNTGDGFLAEFPSAVEAVRAAMQFQTSIHELTIGDVEDRRIAFRVGINIGDVIVEPHDIFGDGVNIAARLEGVAEPGGICISSSAYDQVQGKVGVEFGDLGEQNLKNIARPVRVYRMRPCNAATRPQASLLHRDTPQIGWFPNMFGGFPIRLWPALRARRARMALVIALLFVLSGGVAYWYMHQGEPQPLNHRLSIVVLPFTNLSNASEQEYFAEGITDDLSADLSRIEDSFVIAPSTARAYKNVDPKRVGRELGVRYILDGSLRRTDSLVRINARLIDARTGAEIWSERVDGDWSKSMQLQDIITGRLARRLDLELTNQESRDAEVMRPNNPDAVDLTMRGWAVLNQPYSREQLSQSRALFERALQIDPGFPKALVGLAETLAMEVNYRWTDAPADQLRRAESAVGQVLSKFPSDAMAHFVRGEIQRASGRNVEAAVGEYEAAIAINPSLAPAHGALGAAKIRVGRSAEAFAPLQMAIQLSPRDPLLSTWYFYIGHAHSHLGQYEGAIDWCGRSIAVQPLWIAYADLAAAHALTGHEREAYAAVAELRRLRPSYTVTEWLQDGKGWSDNAVFLAEFQRIADGLRKAGLPE”, “failed”; in that of “MCSFFKKKLCIFFFILGNVVGWSSCVWGHLGSQYTIIGQSVISHSIDEIIQKQQQIIKILEQEIKNLQKDFANESANEYALAKVRLRARDINKRAIEAAFVLRNPLNDINVLLDQLKELQDEPKNLKERSHLIKKKAQINNMVLQFEEIFLATNKIVELSLSQSRELFKRTFKNRLEFSIPMLKYSVEKMKEASSDFLFLFSSWCKFVFHFKFLQLFLSFLVPLFVALGLSYFSRKVLAHVNCYFTKGNEEISYLQRLLVAFISILLPLLVCVVCVYLVFFLFHSFGMELGKLTTIFYTVGHQIILVFLINRLALVLLSLNMVHVRLFNITPFVAHQLVILLTFLGGILAFDAVLDSIYQVVSASLSLTIAKSFIAVFLFAILLFIISFVPLRFRRKSSQNEERETHFLPLYIRIPFIVLGLLLIVMDSLGYVGLAHFIMQQIVIGGAFLVLMYLGIKSAQVIGTKGQFMKTSVGHALMQWFHLEEKTMNKLGIVISVVLNLIVVILCAMPIAVQFGFSYSDLRRVLLQVMTGFQIGNISVSLISIVIGIIAFFACWFLNRRFICWLDGMVLVHGEFDSGVRNSIKTVISYAGVVVSALIGLSMAGLDLKNFALIAGGLSLGIGFGLQNIVQNFVSGLIILIGRPFKLGDYVEAGSVGGIVKRISVRATELETFQRKTIIIPNSSLINNNVSNWTRGSKMGRVDIPIVVSPNVAPERVVEILLEIASTTEGVLKNPAPQVSFTAFDSKKFSFSLAVYVPNITSSFKVTNALHFVLYKRFVQEGILEC”, “failed”.
In the case of “MCTEFWNSFSNLFTGGRSTNRKIILVLLIMVLSSGVCSADNYVGGIPLTSAHSGTVSGGVYCDSYYGMGDQEAKASNTIEKTFTVPDNANVEWAMLLTNVYCGHMQNNYQGKAKVDFNGKNLGTETLNVPYTYSYNGGNGHVQVNDHVNRVTSDYMMYYDVTGLVKAGKNTAVVKTDPLDSSFDGRIRLVTLVVAYNDGSKKTIWYQVNRGHDADSYYSDDEMNENYIGSTAFQAALPEGSSLTDSKLTLVYQASSDGAYAFNGNALSSGTPQGTFSGSNTWDVKDSLKSSGTNTLTYDRTASFYKSVLGILTAEYTTSSSGDSTDDTPADNTTDNGSAGDTTDDISSDNTTNDTSSDNTTSDVPAGNTTNDTPADNTTDAKFSADLGVQAIKVSHNSAAKAWKNLVNTVNVTVINNGPEKAGSFALELYSEGSLLESKPINGLANGATEAVEFVWKPEDAKNYTLRAVVVPGSTINDANATNNELSKTQEVMHNGYIGDKPLETYLHGTVKGNIIYDYGNSSYVKVSSGDVYTAGHSLSLPEGAIVKYARLYNFWTWSATGSSGVIPSMSLDFAGSSLTPEAEYADQKGWGQYDYPTGTWAYNVTGLVSGSGNYITTVKNTNSDAENSFCIDGIALLVVYEDASGKETQYWINEGCDAVSTMSSSGGLTPDEATVKIAFAGDSIDLGNVDNARLWTTVQSGGHEGIALKFNEMSISGVYDSTPSSNLDIDEARDVTSYLLSQNNEAQIIAPSVTDNSGDYMIPSSAILAVSYKSETTDDTNITDDTNVTDDTNVTDGTNVTDDTNVTDGTNVTNDTNVTNDTNVTNDTNVTNDTNVTNDTNVTNDTNVTDDTNVTDGTNVTDGTNVTIDTNVTIDTNVTIDTNVTDNTNVTDDTNMKDDTNVTLKVNIIPVISLTVSPDSLDFGTVSPGTPSESLPLALKNNGGISIKVTAEVHDQENGPFATGLLLDQNIWSNYSKVLAAESAETSQAQLDLPLNYSSTGQFQGTLSLWAEAA” it was “failed”; in that of “MCTSLTLETKNGQHLFARTMDFTLDMNQEVIIIPRHYQWNNITGEIINTKHATVGMGINHQGRIIMADGVNEAGMTCATLYFPGFATYSQSIDDNTTNLAPFDFVTWSLTQFNSVKELKKSVDSITFLDIPLPDLGLTPPLHWILADKWGDCIVLDPTSEGLKLYDNPLGVMTNSPEFNWHLQNLRQYIGLKSQPFAPTEWSNLPLSAFGQGSGSMGLPGDFTPPSRFVRAAYGKQNIQGIDSEEEGVSALFHILSNCEVPKGGVITEEGALDNTIYTSVMCMESGTYYYHTYDCRQIIAVHLFHENLDTDEIKAYPFQRKQKIFYEN”, “failed”.
